Measured values as given in the supplement of paper PMC7877785.
± gives the uncertainty stated by the source.

Test: self-splicing fitness, log relative to wild type (ln ratio); higher = more splicing; Tetrahymena group I intron in knt gene, E. coli kanamycin selection, DiMSum; sequences stand for … in CUCUCU…GGAGGGAAAAGUUAUCAGGCAUGCACCUGGUAGCUAGUCUUUAAACCAAUAGAUUGCAUCGGUUUAAAAGGCAAGACCGUCAAAUUGCGGGAAAGGGGUCAACAGCCGUUCAGUACCAAGUCUCAGGGGAAACUUUGAGAUGGCCUUGCAAAGGGUAUGGUAAUAAGCUGACGGACAUGGUCCUAACCACGCAGCCAAGUCCUAAGUCAACAGAUCUUCUGUUGAUAUGGAUGCAGUUCACAGACUAAAUGUCGGUCGGGGAAGAUGUAUUCUUCUCAUAAGAUAUAGUCGGACCUCUCCUUAAUGGGAGCUAGCGGAUGAAGUGAUGCAACACUGGAGCCGCUGGGAACUAAUUUGUAUGCGAAAGUAUAUUGAUUAGUUUUGGAGUACUCGUGGUCG
How it was run: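 The eight P1ex-region nucleotides of an intron in the knt kanamycin-resistance gene on pET-22b(+) were all randomised and the library put into E. coli BL21(DE3). Six replicate transformations were grown overnight at 37°C or 30°C on LB agar with or without 25 μg/mL kanamycin, together with 100 μg/mL carbenicillin, 50 μM IPTG and 0.2% rhamnose. Colonies were pooled and amplicon-sequenced on an Illumina HiSeq 2500. Fitness from DiMSum is the error-weighted combination of wild-type-normalised replicate fold changes, kanamycin over none.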

## AGAGAGCAAUAUUACGUCCC
30 °C
  self-splicing fitness (ln): -2.37 ± 0.33
37 °C
  self-splicing fitness (ln): -1.25 ± 0.37

## AGAGAGCAAUAUUACGUGUA
30 °C
  self-splicing fitness (ln): -2.73 ± 0.3
37 °C
  self-splicing fitness (ln): -2.78 ± 0.32

## AGAGAGCAAUAUUACGUUGC
30 °C
  self-splicing fitness (ln): -2.89 ± 0.23
37 °C
  self-splicing fitness (ln): -2.89 ± 0.32

## AGAUAGCAAUAUUACGAAAC
30 °C
  self-splicing fitness (ln): -3.23 ± 0.37

## AGAUAGCAAUAUUACGAACC
30 °C
  self-splicing fitness (ln): 0.553 ± 0.29
37 °C
  self-splicing fitness (ln): -0.637 ± 0.27

## AGAUAGCAAUAUUACGAAGA
37 °C
  self-splicing fitness (ln): -1.12 ± 0.39

## AGAUAGCAAUAUUACGAAGG
30 °C
  self-splicing fitness (ln): -2.57 ± 0.2

## AGAUAGCAAUAUUACGAAGU
30 °C
  self-splicing fitness (ln): -3.27 ± 0.14
37 °C
  self-splicing fitness (ln): -1.83 ± 0.13

## AGAUAGCAAUAUUACGACAA
30 °C
  self-splicing fitness (ln): -0.741 ± 0.072
37 °C
  self-splicing fitness (ln): -0.217 ± 0.077

## AGAUAGCAAUAUUACGAGAG
30 °C
  self-splicing fitness (ln): -3.7 ± 0.29
37 °C
  self-splicing fitness (ln): -2.37 ± 0.25

## AGAUAGCAAUAUUACGAGCU
30 °C
  self-splicing fitness (ln): -0.432 ± 0.13
37 °C
  self-splicing fitness (ln): -1.02 ± 0.13

## AGAUAGCAAUAUUACGAGGU
30 °C
  self-splicing fitness (ln): -2.94 ± 0.24
37 °C
  self-splicing fitness (ln): -2.17 ± 0.24

## AGAUAGCAAUAUUACGCAUG
30 °C
  self-splicing fitness (ln): -1.58 ± 0.14
37 °C
  self-splicing fitness (ln): -0.884 ± 0.14

## AGAUAGCAAUAUUACGCCAC
37 °C
  self-splicing fitness (ln): -2.5 ± 0.35

## AGAUAGCAAUAUUACGCCGG
30 °C
  self-splicing fitness (ln): -2.14 ± 0.44

## AGAUAGCAAUAUUACGCGCC
30 °C
  self-splicing fitness (ln): -0.504 ± 0.15
37 °C
  self-splicing fitness (ln): -0.626 ± 0.27

## AGAUAGCAAUAUUACGCGGC
30 °C
  self-splicing fitness (ln): -3.16 ± 0.22
37 °C
  self-splicing fitness (ln): -3.59 ± 0.42

## AGAUAGCAAUAUUACGCUGG
30 °C
  self-splicing fitness (ln): -3.38 ± 0.34
37 °C
  self-splicing fitness (ln): -1.56 ± 0.25

## AGAUAGCAAUAUUACGCUUC
30 °C
  self-splicing fitness (ln): -2.66 ± 0.42
37 °C
  self-splicing fitness (ln): -2.27 ± 0.49

## AGAUAGCAAUAUUACGCUUG
30 °C
  self-splicing fitness (ln): -2.48 ± 0.12
37 °C
  self-splicing fitness (ln): -0.783 ± 0.13

## AGAUAGCAAUAUUACGGACG
30 °C
  self-splicing fitness (ln): -0.861 ± 0.15
37 °C
  self-splicing fitness (ln): -0.892 ± 0.15

## AGAUAGCAAUAUUACGGAGG
30 °C
  self-splicing fitness (ln): -4.37 ± 0.26
37 °C
  self-splicing fitness (ln): -3.22 ± 0.26

## AGAUAGCAAUAUUACGGGCU
30 °C
  self-splicing fitness (ln): -1.34 ± 0.15
37 °C
  self-splicing fitness (ln): -1.38 ± 0.21

## AGAUAGCAAUAUUACGGUCC
30 °C
  self-splicing fitness (ln): -1.27 ± 0.14
37 °C
  self-splicing fitness (ln): -1.03 ± 0.18

## AGAUAGCAAUAUUACGUAAA
30 °C
  self-splicing fitness (ln): -2.53 ± 0.17
37 °C
  self-splicing fitness (ln): -1.74 ± 0.14

## AGAUAGCAAUAUUACGUAAC
30 °C
  self-splicing fitness (ln): -3.68 ± 0.35
37 °C
  self-splicing fitness (ln): -2.01 ± 0.23

## AGAUAGCAAUAUUACGUAGU
30 °C
  self-splicing fitness (ln): -2.61 ± 0.11
37 °C
  self-splicing fitness (ln): -2.46 ± 0.15

## AGAUAGCAAUAUUACGUCAG
30 °C
  self-splicing fitness (ln): -2.66 ± 0.15
37 °C
  self-splicing fitness (ln): -1.01 ± 0.13

## AGAUAGCAAUAUUACGUGAA
30 °C
  self-splicing fitness (ln): -1.95 ± 0.082
37 °C
  self-splicing fitness (ln): -1.85 ± 0.12

## AGCAAGCAAUAUUACGAAAC
30 °C
  self-splicing fitness (ln): -4.25 ± 0.25
37 °C
  self-splicing fitness (ln): -1.03 ± 0.13

## AGCAAGCAAUAUUACGACCG
30 °C
  self-splicing fitness (ln): -0.988 ± 0.069
37 °C
  self-splicing fitness (ln): -0.512 ± 0.097

## AGCAAGCAAUAUUACGACUU
30 °C
  self-splicing fitness (ln): 0.234 ± 0.098
37 °C
  self-splicing fitness (ln): -0.294 ± 0.11

## AGCAAGCAAUAUUACGAUAG
30 °C
  self-splicing fitness (ln): -2.98 ± 0.21
37 °C
  self-splicing fitness (ln): -2.04 ± 0.2

## AGCAAGCAAUAUUACGAUCA
30 °C
  self-splicing fitness (ln): -0.258 ± 0.084
37 °C
  self-splicing fitness (ln): -0.0192 ± 0.099

## AGCAAGCAAUAUUACGCAAA
30 °C
  self-splicing fitness (ln): -3.11 ± 0.27
37 °C
  self-splicing fitness (ln): -2.23 ± 0.24

## AGCAAGCAAUAUUACGCAAU
30 °C
  self-splicing fitness (ln): -2.54 ± 0.15
37 °C
  self-splicing fitness (ln): -1.41 ± 0.13

## AGCAAGCAAUAUUACGCACG
30 °C
  self-splicing fitness (ln): -1.44 ± 0.097
37 °C
  self-splicing fitness (ln): -0.144 ± 0.13

## AGCAAGCAAUAUUACGCAUG
30 °C
  self-splicing fitness (ln): -3.32 ± 0.16
37 °C
  self-splicing fitness (ln): -2.74 ± 0.2

## AGCAAGCAAUAUUACGCGAA
30 °C
  self-splicing fitness (ln): -2.39 ± 0.1
37 °C
  self-splicing fitness (ln): -0.85 ± 0.099

## AGCAAGCAAUAUUACGCGCA
30 °C
  self-splicing fitness (ln): -0.742 ± 0.07
37 °C
  self-splicing fitness (ln): 0.548 ± 0.11

## AGCAAGCAAUAUUACGCGCU
37 °C
  self-splicing fitness (ln): -2.2 ± 0.32

## AGCAAGCAAUAUUACGCGUU
30 °C
  self-splicing fitness (ln): -2.89 ± 0.17
37 °C
  self-splicing fitness (ln): -2.44 ± 0.19

## AGCAAGCAAUAUUACGGACA
30 °C
  self-splicing fitness (ln): -1.12 ± 0.14
37 °C
  self-splicing fitness (ln): -0.766 ± 0.14

## AGCAAGCAAUAUUACGGAGA
30 °C
  self-splicing fitness (ln): -3.25 ± 0.17
37 °C
  self-splicing fitness (ln): -2.35 ± 0.19

## AGCAAGCAAUAUUACGGAGG
30 °C
  self-splicing fitness (ln): -4.63 ± 0.46
37 °C
  self-splicing fitness (ln): -2.28 ± 0.33

## AGCAAGCAAUAUUACGGCAC
30 °C
  self-splicing fitness (ln): -0.889 ± 0.08
37 °C
  self-splicing fitness (ln): -0.371 ± 0.11

## AGCAAGCAAUAUUACGGCCU
30 °C
  self-splicing fitness (ln): -0.383 ± 0.094
37 °C
  self-splicing fitness (ln): 0.167 ± 0.13

## AGCAAGCAAUAUUACGGGAG
30 °C
  self-splicing fitness (ln): -3.68 ± 0.19
37 °C
  self-splicing fitness (ln): -1.78 ± 0.13

## AGCAAGCAAUAUUACGGGCU
30 °C
  self-splicing fitness (ln): -2.45 ± 0.22
37 °C
  self-splicing fitness (ln): -2.09 ± 0.31
